# Test results as given in the nanobody polyreactivity screen of Harvey et al. (2022).
# Assay: yeast display, Sf9 membrane polyspecificity reagent, FACS + sequencing; frameworks hold sequencing errors
# Procedure, shortened: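 Sorting gates, low and high (top ~1%), were placed on anti-HA fluorescence to track expression and on streptavidin fluorescence to track reagent binding. A clone's polyreactivity label is taken from the gate it came out of. The reagent was 10% biotinylated, detergent-solubilized Sf9 membrane, applied for 1 hour at 4 °C to galactose-induced yeast display cells.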
row,Sequence,polyreactivity (PSR sort gate)
1,QVQLVESGGGLVQAGGSLRLSCAASGITFDGNAMGWYRQAPGKERELVAGISGSGGGTYYADSVKGRFTISRDNAKNTVYLQMNSLKPEDTAVYYCAADTSTSHAYDYWGQGTQVTVSS,low polyreactivity
2,QVQLVESGGGLVQAGGSLRLSCAASGITFDHYAMGWYRQAPGKERELVAAITSGGNTNYADSVKGRFTISRDNAKNTVYLQMNILKPVDTAVYYCNARYDVWYYYWGQGTQVTVSS,high polyreactivity
3,QVQLVESGGGLVQAGGSLRLSCAASGITFDLYAMGWYRQAPGKERELVAAISISSTSTYYADSVKGRFTISRDNAKNTVYLQMNSLKPEDTAVYYCNAVPSSKTFWFDYWGQGTQVTVSS,low polyreactivity
4,QVQLVESGGGLVQAGGSLRLSCAASGITFDRYLMGWYRQAPGKERELDAAISWTGDSTYYADSVKGRFTISRDNAKNTVYLQMNSLKPEDPAVYYCAAEDLWYGYNYWGQGTQVTVSS,high polyreactivity
5,QVQLVESGGGLVQAGGSLRLSCAASGITFDSNAMGWYRQAPGNERELVAAISSTGSTDYADSVKGRFTITRDNAKNTVYLQMNSLKPEDTAVYYCATGGRGGRRYEYWGQGTQVTVSS,low polyreactivity
6,QVQLVESGGGLVQAGGSLRLSCAASGITFDSNTKGWYRPAPGKEREFVATISYSGGSTYYADSVKGRFTISRDNAKNTVYFQMNSLKPEDTAVYYCHADYYGGPTMQYGYLWYDYWGEGTQVTVSS,low polyreactivity
7,QVQLVESGGGLVQAGGSLRLSCAASGITFDSYAMGWYRQAPGKEREFVAAISRSGGSTYYADSVKGRFTISRDNAKNTVYLQMNSLKPEDTAVYYCAVSLGRGSSWKLGYWGQGTQVTVSS,high polyreactivity
8,QVQLVESGGGLVQAGGSLRLSCAASGITFDSYAMGWYRQAPGKERELVAAISYSGGSTYYADSVKGRFTISRDNAKNTVYLQMNSLKPEDTAVYYCAAASDDDYDYWGQGTQVTVSS,low polyreactivity
9,QVQLVESGGGLVQAGGSLRLSCAASGITFEGYAMGGYRQAPGKERELVAAIRSSGTSTYYADSVKGRFTISRDNAKNTVYLQMNSLKPEDTAVYYCNRARSSSLYDYWGQGTQVTVSS,low polyreactivity
10,QVQLVESGGGLVQAGGSLRLSCAASGITFEGYAMGRYRQAPGKERELVAAITGSGSTTYYADSVKGRFTISRDNAKNTVYLQMNSLKPEDTAVYYCAADVSYKLYWGQGTQVTVSS,low polyreactivity
11,QVQLVESGGGLVQAGGSLRLSCAASGITFEGYAMGWYRQAPGKERELVAAITGSGSTTYYADSVKGRFTISRDNAKNTVYLQMNSLKPEDTAVYYCAADVSYKLYWGQGTQVTVSS,low polyreactivity
12,QVQLVESGGGLVQAGGSLRLSCAASGITFEGYAMGWYRQAPGKERELVAAITWSGGRTYYADSVKGRFTISRDNAKNTVYLQMNSLKPEDTAVYYCAADVSDWSNQYFDSYLRMDYWGQGTQVTVSS,low polyreactivity
13,QVQLVESGGGLVQAGGSLRLSCAASGITFEIYVMGWYRQAPGKERELVAAITSDDTTYADSVKGRFTISRDNAKNTVYLQMNSLKPEDTAVYYCAADYYGVGVGPYSPADEYDYWGQGTQVTVSS,low polyreactivity
14,QVQLVESGGGLVQAGGSLRLSCAASGITFEKYAMGWYRQAPGKERELVAAITSSGGSTYYADSVKGRFTISRDNAKNTVYLQMNSLKPEDTAVYYCKARYYYADRTSGGYYYWGQGTQVTVSS,high polyreactivity
15,QVQLVESGGGLVQAGGSLRLSCAASGITFERYAIGWYRQAPGKERELVAAITSSGGSTYYADSVKGRFTISRDNAKNTVYLQMNSLKPEDTAVYYCAARNAYTPRHDYWGQGTQVTVSS,high polyreactivity
16,QVQLVESGGGLVQAGGSLRLSCAASGITFERYTMGWYRQAPGKERELVAAIRGSGGTYYADSVKGRFTISRDNAKNTVYLQMNSLKPEDTAVYYCAARYSYRYGVVYGTLHGYWGQGTQVTVSS,high polyreactivity
17,QVQLVESGGGLVQAGGSLRLSCAASGITFETYAMGWYRPAPGTVRELVAAISSGTDDTYYADSVKGRFTISRDNATNTVYLQMNSLKPEDTAVYYCAALGYATGSWRYYYWGQGTQVTVSS,low polyreactivity
18,QVQLVESGGGLVQAGGSLRLSCAASGITFEYFDRGWYRQAPGKERELVAAISWSTDITYADSVKGRFTISRDNAKNTVYLQMNSLKPEDTAVYYCAASTYEYTSYDYWGQGTQVTVSS,low polyreactivity
19,QVQLVESGGGLVQAGGSLRLSCAASGITFEYYTMGWYRQAPGKERELVAAITQGGGTTYYADSVKGRFTISRDNAKNTVYLQMNSLKPEDTAVYYCAAYVGYLLLYYPTYYYWGQGTQVTVSS,low polyreactivity
20,QVQLVESGGGLVQAGGSLRLSCAASGITFFDYAMGWYIQAPGKERELVAAIDLSDGRTYYADSVKGRFTISRDNAKNTVYLQMNSLKPEDTAVYYCARQHEDYVYYWYYWYDYDYWGQGTQVTVSS,low polyreactivity
21,QVQLVESGGGLVQAGGSLRLSCAASGITFFDYAMGWYRQAPGKERELFAAIDLSDGRTYYADSVKGRFTISRDNAKNTVYLQMNSLKPEDTAVYYCNADSFLSWVYRYVYYGSGYWGQGTQVTVSS,low polyreactivity

row,Sequence,polyreactivity (PSR sort gate)
1,QVQLVESGGGLVQAGGSLRLSCAASGITFFFNAMGWYRQAPGKERELVAAITSGGGSTYYADSVKGRFTISRDNAKNTVYLQMNSLKPEDTAVYYCNADFSKSYDYWGQGTQVTVSS,low polyreactivity
2,QVQLVESGGGLVQAGGSLRLSCAASGITFFQYAMGWSRQAPGKERELVAAISRSGSRTYYADSVKGRFTISRDNAKNTVYLQLNSLKQEDTAVYYCAAARVNDHYGYYRQMNYWGQCTQVTVSS,high polyreactivity
3,QVQLVESGGGLVQAGGSLRLSCAASGITFFRYAMGWYRQAPGKERELVAAISSSGGSTYYADSVKGRFTISRDNAKNTVYLQMNSLKPEDTAVYYCAAAHGYRYYWGQGTQVTVSS,high polyreactivity
4,QVQLVESGGGLVQAGGSLRLSCAASGITFFRYTMGWYRQAPGKEREFVAAINIRGTRTYYADSVKGRFTISRDNAKNTVYLQMNSLKPEDTAVYYCAAGYAYRYSGLSYDVDYWGQGTQVTVSS,high polyreactivity
5,QVQLVESGGGLVQAGGSLRLSCAASGITFFTYGMGWYRQAPGKERELVASINWSGGTYYADSVKGRFTISRDNAKNTVYLQMNSLKPEDTAVYYCAAETSNSTQEMGYWGQGTQVTVSS,low polyreactivity
6,QVQLVESGGGLVQAGGSLRLSCAASGITFFTYTMGWYRQAPGKERELVARIRWDGGSTYYADSVKGRFTISRDNAKNTVYLQMNSLKPEDTAVYYCAADYPYSTYDYWGQVTQVTVSS,low polyreactivity
7,QVQLVESGGGLVQAGGSLRLSCAASGITFGAYAMGWYRQAPGKEMELVAVITRGADTYYADSVKGRFTISRDNAKNTVYLQMNSLKPEDTAVYDCAAEIDLPYYYGSDDDDYWGQGTQVTVSS,high polyreactivity
8,QVQLVESGGGLVQAGGSLRLSCAASGITFGDYAMGWSRQAPGKERELVAGINWSGDGTYYADSVKGRFTISRDNAKNTVYLQMNSLKPEDTAVYYCAAETFYDYGGYDYWGQGTQVTVSS,low polyreactivity
9,QVQLVESGGGLVQAGGSLRLSCAASGITFGFNAMGWYRQAPGKERELVAAITWSVGRTYYADSVKGRFTISRDNAKNTVYLQMNSLKPEDTAVYYCAKEFVAGDDYFAYDYWGQGTQVTVSS,low polyreactivity
10,QVQLVESGGGLVQAGGSLRLSCAASGITFGGNAMGWYRQDPGKERELVAAISSSGGSTYYADSVKGRFTISRDNAKNTVYLQMNSLKPEDTAVYYCAARNRYPLRFYYWGQGTQVTVSS,high polyreactivity
11,QVQLVESGGGLVQAGGSLRLSCAASGITFGLYAMGWYRQAPGKERELVAAITWRGGSTYYADSVKGRFTISRDNAKNTVYLQMNSLKPEDTAVYYCAADFSGYSDDYWGQGTQVTVSS,high polyreactivity
12,QVQLVESGGGLVQAGGSLRLSCAASGITFGRKTMGWYRQAPGKERELLAAIDSGGNTYADSVKGRFTISRDNAKNTDYLEMNSLKPEDTAVYYCAVDGGEFYSYGYWGLGTQVTVSS,low polyreactivity
13,QVQLVESGGGLVQAGGSLRLSCAASGITFGRNTMAWYIQAPGKERELVAAIDSGGNTYADSVKGRFTISRDNAKITVDLQMNSLKQEDTSVYYCAVVWVWDVWFLVYYWGQGTQVTVSS,low polyreactivity
14,QVQLVESGGGLVQAGGSLRLSCAASGITFGRNTMGWSRQAPGKEREMVASITRGGNTNYADSVKGRFTISRDNAKNTVYLQLNSLKPEDTAVYYCAARSTYRVSHVDYWGQGTQVTVSS,low polyreactivity
15,QVQLVESGGGLVQAGGSLRLSCAASGITFGRNTMGWYRPAPGKERELVAAIDSGGNTYADSVKGRFTISRDNAKNTVYLQMNSLKAEDTAVYYCAVDGGEFSSYGYWGQGTQVTVSS,low polyreactivity
16,QVQLVESGGGLVQAGGSLRLSCAASGITFGRNTMGWYRQAPGKERELVASINKSGGSTYYADSVKGRFTISRDNAKNTVYLQMNSLKPEDTAVYYCAARTGWPRVGFLYPAHVGFDYWGQGTQVTVSS,low polyreactivity
17,QVQLVESGGGLVQAGGSLRLSCAASGITFGRNTMGWYRQPPGKERELVAAIDSGGNTYADSVKGRFTISRDNAKNTVYLQMNSLKPEDTAVYYCAVDGGEFSSYGYWVQGTQVTVSS,low polyreactivity
18,QVQLVESGGGLVQAGGSLRLSCAASGITFGRYAMGWYRQAPGKERELVAAISWSGGSTYYADSVKGRFTISRDNANNTVYLQMNRLKPEDTAVYYCNVVFRFNSFDYYYWGQGSQVTVSS,high polyreactivity
19,QVQLVESGGGLVQAGGSLRLSCAASGITFGRYVMGWYRQAPGKERELVATISSGGRTKYADSVKGRFSISRDNAKNTVYLQMNSLKPEDTAGYYCNAESPKWPWYSGFDYWGQGTQVTVSS,high polyreactivity
20,QVQLVESGGGLVQAGGSLRLSCAASGITFGSYAMGWYRQAPGKERELVAAITWRGGTTYYADSVKARFTISRDNAKNTVYLQMNSLKPEDTAVYYCNTAWTGYPRYQYGGNYWGQGTQVTVSS,high polyreactivity
